Data taken from patent US20240360203A1 (GENERATE BIOMEDICINES, published 2024).
Where two headings read alike, the source gives them in different places.

Assays:
Assay in all cases: cell-based or functional assay
[1] = biological target: T1, SARS-CoV-2 BA.4/5 Spike on pseudovirus (SARS-CoV-2, UniProt P0DTC2 14-1273)
[2] = biological target: T2, SARS-CoV-2 BA.2 Spike on pseudovirus (SARS-CoV-2, UniProt P0DTC2 14-1273)
[3] = biological target: T3, SARS-CoV-2 Delta Spike on pseudovirus (SARS-CoV-2, UniProt P0DTC2 14-1273)
[4] = biological target: T4, SARS-CoV-2 BA.2.12.1 Spike on pseudovirus (SARS-CoV-2, UniProt P0DTC2 14-1273)
[5] = biological target: T5, SARS-CoV-2 BA.1 Spike on pseudovirus (SARS-CoV-2, UniProt P0DTC2 14-1273)
[6] = biological target: T1, SARS-CoV-2 BA.4/5 Spike on pseudovirus; remark: listed apart in the source
[7] = biological target: T1, SARS-CoV-2 BA.4/5 Spike on pseudovirus; remark: listed apart in the source
[8] = biological target: T2, SARS-CoV-2 BA.2 Spike on pseudovirus; remark: listed apart in the source
[9] = biological target: T3, SARS-CoV-2 Delta Spike on pseudovirus; remark: listed apart in the source
[10] = biological target: T4, SARS-CoV-2 BA.2.12.1 Spike on …; remark: listed apart in the source
[11] = biological target: T5, SARS-CoV-2 BA.1 Spike on pseudovirus; remark: listed apart in the source
[12] = biological target: T1, SARS-CoV-2 BA.4/5 Spike on pseudovirus; remark: listed apart in the source
[13] = biological target: T2, SARS-CoV-2 BA.2 Spike on pseudovirus; remark: listed apart in the source
[14] = biological target: T3, SARS-CoV-2 Delta Spike on pseudovirus; remark: listed apart in the source
[15] = biological target: T4, SARS-CoV-2 BA.2.12.1 Spike on …; remark: listed apart in the source

Row | Binder | IC50, pseudovirus neutralization [1] [µg/mL] | IC50, pseudovirus neutralization [2] [µg/mL] | IC50, pseudovirus neutralization [3] [µg/mL] | IC50, pseudovirus neutralization [4] [µg/mL] | IC50, pseudovirus neutralization [5] [µg/mL] | IC50, pseudovirus neutralization [6] [µg/mL] | % neutralization at 4.5 µg/ml, pseudovirus [7] [%] | % neutralization at 4.5 µg/ml, pseudovirus [8] [%] | % neutralization at 4.5 µg/ml, pseudovirus [9] [%] | % neutralization at 4.5 µg/ml, pseudovirus [10] [%] | % neutralization at 4.5 µg/ml, pseudovirus [11] [%] | IC50, pseudovirus neutralization [12] [µg/mL] | IC50, pseudovirus neutralization [13] [µg/mL] | IC50, pseudovirus neutralization [14] [µg/mL] | IC50, pseudovirus neutralization [15] [µg/mL]
1 | AB-1 (antibody, V domains shown) VH: EVQLVESGAEVKKPGESLKISCKGSGYTFTRYWIGWVRQMPGKGLEWMGIIYPGDSDVRYSPSFQGHVTISADKSISTAYLQWNSLKASDTAMYYCARLPQYCSKGVCYRWFDPWGQGTLVTVSS VL: EIVLTQSPSSVSASVGDRVTITCRASQGISSWLAWYQQKPGKAPKLLIYAASSLQSGVPSRFSGSGSGTDFTLTISSLQPEDFATYYCQQGHSFPYTFGQGTNLEIK | 0.0278 | 0.0219 | 0.0139 | 0.0133 | 0.0088 | 0.0101 | 90.4 | 89.9 | 99.5 | 89.2 | 96.5 | 0.075 | 0.031 | 0.034 | 
2 | Reference Antibody (antibody, V domains shown) VH: EVQLVESGAEVKKPGESLKISCKGSGYTFTRYWIGWVRQMPGKGLEWMGIIYPGDSDTRYSPSFQGHVTISADKSISTAYLQWNSLKASDTAMYYCARLPQYCSNGVCQRWFDPWGQGTLVTVSS VL: EIVLTQSPSSVSASVGDRVTITCRASQGISSWLAWYQQKPGKAPKLLIYAASSLQSGVPSRFSGSGSGTDFTLTISSLQPEDFATYYCQQGNSFPYTFGQGTNLEIK | 0.0314 | 0.0941 | 0.0681 | 0.0307 | 0.0261 |  | 74.4 | 74.5 | 93.9 |  | 91.9 | 0.634 | 1.25 | 0.256 | 0.337
